The record followed here is paper PMC8052441, “Structural insight into the molecular mechanism of p53-mediated mitochondrial apoptosis” (Nature Communications, 2021).

In general, Kd refers to the free concentration of one partner at which half of the binding sites on the other are occupied at equilibrium, for simple one-to-one binding. A low value points to tighter binding.

In assay [1] the target is T1, p53-DBD (human p53 DNA-binding domain, amino acids 92-292) (human, UniProt P04637 92-292).
T1 construct: Cloned into pMAL-c5x; In the crystal (PDB 6LHD) this stretch stood fused to BCL-xL; the rows of the structure use m1 and m3 for the two halves; also called p53-A; p53-B; source: E. coli BL21 (DE3), purified (amylose, PreScission, Mono S)
Briefly: ITC; p53 protein (100 µM) titrated into 10–30 µM BCL-xL or BCL-2; 25 °C; 50 mM Tris pH 7.0, 40 mM NaCl, 1 mM TCEP. The note with it: both partners purified.

Assay [2] addresses T2, p53-DT (human p53 DBD and tetramerization domain, amino acids 92-360) (human, UniProt P04637 92-360).
T2 construct: human p53, DBD and tetramerization domain, amino acids 92-360; Tetramer in solution by gel filtration and cross-linking; also called wild-type p53-DT; not shown: His6, N-terminal, cleaved
The description is as above. Particulars: both partners purified.

T1 sequence (P04637 92-292): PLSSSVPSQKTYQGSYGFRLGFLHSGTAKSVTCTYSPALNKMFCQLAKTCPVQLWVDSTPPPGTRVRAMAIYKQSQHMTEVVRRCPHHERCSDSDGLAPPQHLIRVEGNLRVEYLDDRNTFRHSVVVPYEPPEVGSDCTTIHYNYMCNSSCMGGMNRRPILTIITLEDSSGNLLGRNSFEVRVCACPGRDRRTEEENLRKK
T2 sequence (P04637 92-360): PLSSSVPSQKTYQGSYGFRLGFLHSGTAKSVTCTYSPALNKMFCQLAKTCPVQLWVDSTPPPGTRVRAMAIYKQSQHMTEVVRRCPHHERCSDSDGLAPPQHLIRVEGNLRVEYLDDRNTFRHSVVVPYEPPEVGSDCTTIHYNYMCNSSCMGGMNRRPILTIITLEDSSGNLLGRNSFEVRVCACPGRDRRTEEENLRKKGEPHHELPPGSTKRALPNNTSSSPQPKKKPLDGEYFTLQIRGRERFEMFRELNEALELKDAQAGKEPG

B1: BCL-xL (human, lacking the α1-α2 loop 45-84 and the 22 C-terminal residues), His-tagged (domain or fragment, UniProt Q07817-1 1-211, looked up)
chain: MSQSNRELVVDFLSYKLSQKGYSWSQFSDVEENRTEAPEGTESEAVKQALREAGDEFELRYRRAFSDLTSQLHITPGTAYQSFEQVVNELFRDGVNWGRIVAFFSFGGALCVESVDKEMQVLVSRIAAWMATYLNDHLEPWIQENGGWDTFVELYGNNAAAESRKGQERFN
notes: human BCL-xL lacking the disordered α1-α2 loop (amino acids 45-84) and the 22 C-terminal residues (transmembrane region); Cloned into pET-28a; also called BCL-xL-C; BCL-xL-D
As for B1, the Kd was determined as 37.4 µM in assay [1] and 4.1 µM in assay [2].
